Results: patent US20260176319A1 (KALLYOPE, published 2026)
Starred links: 1 amine or outer side, 2 acyl side, 3 side chain; linkers in the order of their positions; H or OH if unused. Non-standard residues stand in square brackets, D forms with d. *: point of attachment. Trp(6-F) = N[C@@H](Cc1c[nH]c2cc(F)ccc12)C(=O)O; Trp(7-F) = N[C@@H](Cc1c[nH]c2c(F)cccc12)C(=O)O; Trp(7-Me) = Cc1cccc2c(C[C@H](N)C(=O)O)c[nH]c12; C20 diacid = O=C(O)CCCCCCCCCCCCCCCCCCC(=O)*; C18 diacid = O=C(O)CCCCCCCCCCCCCCCCC(=O)*; γGlu = O=C(O)[C@H](CCC(=O)[*:2])N[*:1]; 2Nal = N[C@@H](Cc1ccc2ccccc2c1)C(=O)O; Nle = CCCC[C@H](N)C(=O)O; AEEA = NCCOCCOCC(=O)O; βAla = NCCC(=O)O; Sar = CNCC(=O)O

B1: Peptide 124 (peptide)
peptide: {C18 diacid}-[γGlu][AEEA][AEEA]GAH[2Nal]AV[dA]HL[Nle][Sar]-NH2
SMILES: CCCC[C@H](NC(=O)[C@H](CC(C)C)NC(=O)[C@H](Cc1c[nH]cn1)NC(=O)[C@@H](C)NC(=O)[C@@H](NC(=O)[C@H](C)NC(=O)[C@H](Cc1ccc2ccccc2c1)NC(=O)[C@H](Cc1c[nH]cn1)NC(=O)[C@H](C)NC(=O)CNC(=O)COCCOCCNC(=O)COCCOCCNC(=O)CC[C@H](NC(=O)CCCCCCCCCCCCCCCCC(=O)O)C(=O)O)C(C)C)C(=O)N(C)CC(N)=O
B2: Peptide 125 (peptide)
peptide: {C20 diacid}-[γGlu][AEEA][AEEA]GNH[Trp(7-Me)][dA]V[dA]HL[Nle][Sar]-NH2
SMILES: CCCC[C@H](NC(=O)[C@H](CC(C)C)NC(=O)[C@H](Cc1c[nH]cn1)NC(=O)[C@@H](C)NC(=O)[C@@H](NC(=O)[C@@H](C)NC(=O)[C@H](Cc1c[nH]c2c(C)cccc12)NC(=O)[C@H](Cc1c[nH]cn1)NC(=O)[C@H](CC(N)=O)NC(=O)CNC(=O)COCCOCCNC(=O)COCCOCCNC(=O)CC[C@H](NC(=O)CCCCCCCCCCCCCCCCCCC(=O)O)C(=O)O)C(C)C)C(=O)N(C)CC(N)=O
B3: Peptide 126 (peptide)
peptide: {C18 diacid}-[γGlu][AEEA][AEEA]GAH[2Nal]AV[dA]HL[Nle]-NH2
SMILES: CCCC[C@H](NC(=O)[C@H](CC(C)C)NC(=O)[C@H](Cc1c[nH]cn1)NC(=O)[C@@H](C)NC(=O)[C@@H](NC(=O)[C@H](C)NC(=O)[C@H](Cc1ccc2ccccc2c1)NC(=O)[C@H](Cc1c[nH]cn1)NC(=O)[C@H](C)NC(=O)CNC(=O)COCCOCCNC(=O)COCCOCCNC(=O)CC[C@H](NC(=O)CCCCCCCCCCCCCCCCC(=O)O)C(=O)O)C(C)C)C(N)=O
B4: Peptide 128 (peptide)
peptide: {C18 diacid}-[γGlu][AEEA][AEEA]GAHW[dA]V[dA]HL[Nle][Sar]-NH2
SMILES: CCCC[C@H](NC(=O)[C@H](CC(C)C)NC(=O)[C@H](Cc1c[nH]cn1)NC(=O)[C@@H](C)NC(=O)[C@@H](NC(=O)[C@@H](C)NC(=O)[C@H](Cc1c[nH]c2ccccc12)NC(=O)[C@H](Cc1c[nH]cn1)NC(=O)[C@H](C)NC(=O)CNC(=O)COCCOCCNC(=O)COCCOCCNC(=O)CC[C@H](NC(=O)CCCCCCCCCCCCCCCCC(=O)O)C(=O)O)C(C)C)C(=O)N(C)CC(N)=O
B5: Peptide 129 (peptide)
peptide: {C18 diacid}-[γGlu][AEEA][AEEA]GRH[Trp(7-Me)]AV[dA]HL[Nle][Sar]-NH2
SMILES: CCCC[C@H](NC(=O)[C@H](CC(C)C)NC(=O)[C@H](Cc1c[nH]cn1)NC(=O)[C@@H](C)NC(=O)[C@@H](NC(=O)[C@H](C)NC(=O)[C@H](Cc1c[nH]c2c(C)cccc12)NC(=O)[C@H](Cc1c[nH]cn1)NC(=O)[C@H](CCCNC(=N)N)NC(=O)CNC(=O)COCCOCCNC(=O)COCCOCCNC(=O)CC[C@H](NC(=O)CCCCCCCCCCCCCCCCC(=O)O)C(=O)O)C(C)C)C(=O)N(C)CC(N)=O
B6: Peptide 130 (peptide)
peptide: {C18 diacid}-[γGlu][AEEA][AEEA]GNHRAV[dA]HL[Nle][Sar]-NH2
SMILES: CCCC[C@H](NC(=O)[C@H](CC(C)C)NC(=O)[C@H](Cc1c[nH]cn1)NC(=O)[C@@H](C)NC(=O)[C@@H](NC(=O)[C@H](C)NC(=O)[C@H](CCCNC(=N)N)NC(=O)[C@H](Cc1c[nH]cn1)NC(=O)[C@H](CC(N)=O)NC(=O)CNC(=O)COCCOCCNC(=O)COCCOCCNC(=O)CC[C@H](NC(=O)CCCCCCCCCCCCCCCCC(=O)O)C(=O)O)C(C)C)C(=O)N(C)CC(N)=O
B7: Peptide 131 (peptide)
peptide: {C20 diacid}-[γGlu][AEEA][AEEA]GNHWAV[dA]HL[Nle][Sar]-NH2
SMILES: CCCC[C@H](NC(=O)[C@H](CC(C)C)NC(=O)[C@H](Cc1c[nH]cn1)NC(=O)[C@@H](C)NC(=O)[C@@H](NC(=O)[C@H](C)NC(=O)[C@H](Cc1c[nH]c2ccccc12)NC(=O)[C@H](Cc1c[nH]cn1)NC(=O)[C@H](CC(N)=O)NC(=O)CNC(=O)COCCOCCNC(=O)COCCOCCNC(=O)CC[C@H](NC(=O)CCCCCCCCCCCCCCCCCCC(=O)O)C(=O)O)C(C)C)C(=O)N(C)CC(N)=O
B8: Peptide 132 (peptide)
peptide: {C20 diacid}-[γGlu][AEEA][AEEA][AEEA][AEEA]GRHWAV[dA]HL[Nle]-NH2
SMILES: CCCC[C@H](NC(=O)[C@H](CC(C)C)NC(=O)[C@H](Cc1c[nH]cn1)NC(=O)[C@@H](C)NC(=O)[C@@H](NC(=O)[C@H](C)NC(=O)[C@H](Cc1c[nH]c2ccccc12)NC(=O)[C@H](Cc1c[nH]cn1)NC(=O)[C@H](CCCNC(=N)N)NC(=O)CNC(=O)COCCOCCNC(=O)COCCOCCNC(=O)COCCOCCNC(=O)COCCOCCNC(=O)CC[C@H](NC(=O)CCCCCCCCCCCCCCCCCCC(=O)O)C(=O)O)C(C)C)C(N)=O
B9: Peptide 133 (peptide)
peptide: {C18 diacid}-[γGlu][AEEA][AEEA][AEEA][AEEA]GNH[Trp(6-F)]AV[dA]HL[Nle][Sar]-NH2
SMILES: CCCC[C@H](NC(=O)[C@H](CC(C)C)NC(=O)[C@H](Cc1c[nH]cn1)NC(=O)[C@@H](C)NC(=O)[C@@H](NC(=O)[C@H](C)NC(=O)[C@H](Cc1c[nH]c2cc(F)ccc12)NC(=O)[C@H](Cc1c[nH]cn1)NC(=O)[C@H](CC(N)=O)NC(=O)CNC(=O)COCCOCCNC(=O)COCCOCCNC(=O)COCCOCCNC(=O)COCCOCCNC(=O)CC[C@H](NC(=O)CCCCCCCCCCCCCCCCC(=O)O)C(=O)O)C(C)C)C(=O)N(C)CC(N)=O
B10: Peptide 134 (peptide)
peptide: {C18 diacid}-[γGlu][AEEA][AEEA]GNH[Trp(7-Me)]AV[dA]HL[Nle]R-NH2
SMILES: CCCC[C@H](NC(=O)[C@H](CC(C)C)NC(=O)[C@H](Cc1c[nH]cn1)NC(=O)[C@@H](C)NC(=O)[C@@H](NC(=O)[C@H](C)NC(=O)[C@H](Cc1c[nH]c2c(C)cccc12)NC(=O)[C@H](Cc1c[nH]cn1)NC(=O)[C@H](CC(N)=O)NC(=O)CNC(=O)COCCOCCNC(=O)COCCOCCNC(=O)CC[C@H](NC(=O)CCCCCCCCCCCCCCCCC(=O)O)C(=O)O)C(C)C)C(=O)N[C@@H](CCCNC(=N)N)C(N)=O
B11: Peptide 136 (peptide)
peptide: {C18 diacid}-[γGlu][AEEA][AEEA][AEEA][AEEA]GAH[Trp(7-F)]AV[dA]HL[Nle]-NH2
SMILES: CCCC[C@H](NC(=O)[C@H](CC(C)C)NC(=O)[C@H](Cc1c[nH]cn1)NC(=O)[C@@H](C)NC(=O)[C@@H](NC(=O)[C@H](C)NC(=O)[C@H](Cc1c[nH]c2c(F)cccc12)NC(=O)[C@H](Cc1c[nH]cn1)NC(=O)[C@H](C)NC(=O)CNC(=O)COCCOCCNC(=O)COCCOCCNC(=O)COCCOCCNC(=O)COCCOCCNC(=O)CC[C@H](NC(=O)CCCCCCCCCCCCCCCCC(=O)O)C(=O)O)C(C)C)C(N)=O
B12: Peptide 137 (peptide)
peptide: {C18 diacid}-[γGlu][AEEA][AEEA][AEEA][AEEA]GRH[Trp(7-F)]AV[dA]HL[Nle][Sar]-NH2
SMILES: CCCC[C@H](NC(=O)[C@H](CC(C)C)NC(=O)[C@H](Cc1c[nH]cn1)NC(=O)[C@@H](C)NC(=O)[C@@H](NC(=O)[C@H](C)NC(=O)[C@H](Cc1c[nH]c2c(F)cccc12)NC(=O)[C@H](Cc1c[nH]cn1)NC(=O)[C@H](CCCNC(=N)N)NC(=O)CNC(=O)COCCOCCNC(=O)COCCOCCNC(=O)COCCOCCNC(=O)COCCOCCNC(=O)CC[C@H](NC(=O)CCCCCCCCCCCCCCCCC(=O)O)C(=O)O)C(C)C)C(=O)N(C)CC(N)=O
B13: Peptide 138 (peptide)
peptide: {C20 diacid}-[γGlu][AEEA][AEEA]GNH[Trp(7-F)]AV[dA]HL[Nle][Sar]-NH2
SMILES: CCCC[C@H](NC(=O)[C@H](CC(C)C)NC(=O)[C@H](Cc1c[nH]cn1)NC(=O)[C@@H](C)NC(=O)[C@@H](NC(=O)[C@H](C)NC(=O)[C@H](Cc1c[nH]c2c(F)cccc12)NC(=O)[C@H](Cc1c[nH]cn1)NC(=O)[C@H](CC(N)=O)NC(=O)CNC(=O)COCCOCCNC(=O)COCCOCCNC(=O)CC[C@H](NC(=O)CCCCCCCCCCCCCCCCCCC(=O)O)C(=O)O)C(C)C)C(=O)N(C)CC(N)=O
B14: Peptide 139 (peptide)
peptide: {C18 diacid}-[γGlu][AEEA][AEEA]GDHW[dA]V[dA]HL[Nle]-NH2
SMILES: CCCC[C@H](NC(=O)[C@H](CC(C)C)NC(=O)[C@H](Cc1c[nH]cn1)NC(=O)[C@@H](C)NC(=O)[C@@H](NC(=O)[C@@H](C)NC(=O)[C@H](Cc1c[nH]c2ccccc12)NC(=O)[C@H](Cc1c[nH]cn1)NC(=O)[C@H](CC(=O)O)NC(=O)CNC(=O)COCCOCCNC(=O)COCCOCCNC(=O)CC[C@H](NC(=O)CCCCCCCCCCCCCCCCC(=O)O)C(=O)O)C(C)C)C(N)=O
B15: Peptide 140 (peptide)
peptide: {C18 diacid}-[γGlu][AEEA][AEEA]FNHWAV[βAla]HL[Nle]-NH2
SMILES: CCCC[C@H](NC(=O)[C@H](CC(C)C)NC(=O)[C@H](Cc1c[nH]cn1)NC(=O)CCNC(=O)[C@@H](NC(=O)[C@H](C)NC(=O)[C@H](Cc1c[nH]c2ccccc12)NC(=O)[C@H](Cc1c[nH]cn1)NC(=O)[C@H](CC(N)=O)NC(=O)[C@H](Cc1ccccc1)NC(=O)COCCOCCNC(=O)COCCOCCNC(=O)CC[C@H](NC(=O)CCCCCCCCCCCCCCCCC(=O)O)C(=O)O)C(C)C)C(N)=O

The binders below were run against human GRP receptor (human, UniProt P30550 1-384) (assay: cell-based or functional assay).
human GRP receptor, sequence (P30550 whole entry): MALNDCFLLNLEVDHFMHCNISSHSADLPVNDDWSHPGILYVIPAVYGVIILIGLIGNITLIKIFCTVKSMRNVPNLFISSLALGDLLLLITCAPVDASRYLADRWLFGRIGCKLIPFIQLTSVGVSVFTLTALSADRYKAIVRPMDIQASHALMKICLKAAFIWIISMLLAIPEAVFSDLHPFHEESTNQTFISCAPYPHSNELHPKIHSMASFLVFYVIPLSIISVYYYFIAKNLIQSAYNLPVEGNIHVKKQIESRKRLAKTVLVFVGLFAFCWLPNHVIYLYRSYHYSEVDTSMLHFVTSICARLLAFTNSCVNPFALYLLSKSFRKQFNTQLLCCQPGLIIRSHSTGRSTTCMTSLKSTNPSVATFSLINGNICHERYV

Binder | hIP1 GRPR EC50
B1 | 2380 nM
B2 | > 10000 nM
B3 | 92.5 nM
B4 | 1060 nM
B5 | 334 nM
GNHWAVXHLX (Palmitoyl-Gly-Asn-His-Trp-Ala-Val-D-Ala-His-Leu-Nle-NH2) [Peptide 10] | 3.8 nM
B6 | > 10000 nM
B7 | 54.2 nM
B8 | 4.18 nM
B9 | 600 nM
B10 | > 10000 nM
B11 | 40.5 nM
B12 | 488 nM
B13 | 81.8 nM
B14 | > 10000 nM
B15 | 4.8 nM
